A word on the Kd: it is the free concentration of one partner at which half of the binding sites on the other are occupied at equilibrium, for simple one-to-one binding. A high value points to weaker binding.

One data set addresses PDGF-AA (UniProt P04085 87-211). Kind of data set: SPR; SPR: PBS (137 mM NaCl, 2.7 mM KCl, 8 mM Na2HPO4, 2 mM KH2PO4) pH 7.4, 25 °C, protein on CM5; EMSA: 50 mM Tris-HCl, 100 mM KCl, pH 7.5, room temperature, 1 uM RNA, 15% PAGE in TBE. The following applies: protein: commercial; chain copies: 2; label: 5' fluorescein for EMSA; none for SPR; parallel G4. For orientation: Surface plasmon resonance follows binding to a sensor surface in real time, without labels.
Regarding GGGGGCGGGAGCCAGAGACCAGUGGGCAGGG (structured_RNA) [VEGFA intronic G4_1], the Kd worked out at 20 nM.

The data set is the same for the next values; noted with them: protein: commercial; chain copies: 2; parallel G4.
In turn, GGGGUGCGGGGAGCGGGGAAGGG (structured_RNA) [PDGFA intronic G4_2] had a Kd of 30 nM.
In turn, GGGGGCAGGGCGCAGGAGGGAGAGGGGG (structured_RNA) [VEGFA intronic G4_2] showed a Kd of 20 nM.
For GGGCGCGGGGUUUGGGGUGGG (structured_RNA) [PDGFB intronic G4_1], the affinity, expressed as Kd, was 30 nM.
The same measure, in the same setting: to GGGGAAGGGGAGCUGGGGCGCAGCGGG (structured_RNA) [PDGFA intronic G4_1] belongs 30 nM; to GGGUUUGGUUGGGCACAGGGCACGGG (structured_RNA) [PDGFB intronic G4_3], 40 nM; to GGGCACUCGGGUAGGGGGAGGACUAGGG (structured_RNA) [PDGFB intronic G4_2], 20 nM.
For the molecule GGAGGAGGGGGAGGAGGA (structured_RNA) [VEGFA 5' UTR G4], the Kd turned out to be 60 nM.

The target in the next data set is PDGF-BB (UniProt P01127 82-190). The description is as above. The following applies: protein: commercial; chain copies: 2; label: 5' fluorescein for EMSA; none for SPR; parallel G4. A general note: In EMSA bound probe runs differently from free probe, usually more slowly.
Chain of PDGF-BB (P01127 82-190): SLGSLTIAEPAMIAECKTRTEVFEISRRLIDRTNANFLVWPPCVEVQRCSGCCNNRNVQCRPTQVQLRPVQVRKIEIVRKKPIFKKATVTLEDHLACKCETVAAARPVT
In the case of GGGGGCGGGAGCCAGAGACCAGUGGGCAGGG (structured_RNA) [VEGFA intronic G4_1], the Kd was found to be 40 nM.

Staying with this data set, now noted: protein: commercial; chain copies: 2; parallel G4.
Molecule GGGGUGCGGGGAGCGGGGAAGGG (structured_RNA) [PDGFA intronic G4_2] returned a Kd of 30 nM.
GGGGGCAGGGCGCAGGAGGGAGAGGGGG (structured_RNA) [VEGFA intronic G4_2] returned a Kd of 30 nM.
Take GGGCGCGGGGUUUGGGGUGGG (structured_RNA) [PDGFB intronic G4_1]: the Kd came out at 40 nM.
With GGGGAAGGGGAGCUGGGGCGCAGCGGG (structured_RNA) [PDGFA intronic G4_1], the Kd was 30 nM.
The molecule GGGUUUGGUUGGGCACAGGGCACGGG (structured_RNA) [PDGFB intronic G4_3] gave a Kd of 60 nM.
GGGCACUCGGGUAGGGGGAGGACUAGGG (structured_RNA) [PDGFB intronic G4_2] registered a dissociation constant Kd of 30 nM.
For GGAGGAGGGGGAGGAGGA (structured_RNA) [VEGFA 5' UTR G4], the Kd is 110 nM.

The target in the next data set is T1, VEGF165 (UniProt P15692-4 27-191). The data set is described as above. The following applies: protein: commercial; label: 5' fluorescein for EMSA; none for SPR; parallel G4.
T1 sequence (P15692 other isoform, or with tags, fused parts or gaps): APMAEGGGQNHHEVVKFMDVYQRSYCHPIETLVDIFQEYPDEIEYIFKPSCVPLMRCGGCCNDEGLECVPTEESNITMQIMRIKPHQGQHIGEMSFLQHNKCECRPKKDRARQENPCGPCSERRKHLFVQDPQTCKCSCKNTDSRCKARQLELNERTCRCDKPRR
Take GGGGGCGGGAGCCAGAGACCAGUGGGCAGGG (structured_RNA) [VEGFA intronic G4_1]: binding was put at a Kd of 140 nM.

Still in this data set, the particulars now being: protein: commercial; parallel G4.
With GGGGUGCGGGGAGCGGGGAAGGG (structured_RNA) [PDGFA intronic G4_2], binding was put at a Kd of 200 nM.
Regarding GGGGGCAGGGCGCAGGAGGGAGAGGGGG (structured_RNA) [VEGFA intronic G4_2], binding was put at a Kd of 31 nM.
Take GGGCGCGGGGUUUGGGGUGGG (structured_RNA) [PDGFB intronic G4_1]: the Kd was found to be 130 nM.
Still for that read-out and setting: the figure for GGGGAAGGGGAGCUGGGGCGCAGCGGG (structured_RNA) [PDGFA intronic G4_1] is 490 nM.
GGGUUUGGUUGGGCACAGGGCACGGG (structured_RNA) [PDGFB intronic G4_3] returned a Kd of 440 nM.
For GGGCACUCGGGUAGGGGGAGGACUAGGG (structured_RNA) [PDGFB intronic G4_2], binding was characterised by a dissociation constant (Kd) of 150 nM.
Take GGAGGAGGGGGAGGAGGA (structured_RNA) [VEGFA 5' UTR G4]: the Kd turned out to be 300 nM.

In the next data set the target is T1, VEGF165. Put plainly: SPR; up to 1000 nM RNA; SPR: PBS (137 mM NaCl, 2.7 mM KCl, 8 mM Na2HPO4, 2 mM KH2PO4) pH 7.4, 25 °C, protein on CM5; EMSA: 50 mM Tris-HCl, 100 mM KCl, pH 7.5, room temperature, 1 uM RNA, 15% PAGE in TBE. The settings on record: protein: commercial; label: 5' fluorescein for EMSA; none for SPR; unexpected parallel G4 by CD.
In the case of GUUUGCGGGAGCCAGAGACCAGUGGGCAGGG (structured_RNA) [VEGFA intronic G4_1 mutant], the binding result was “no binding”.

The data set is the same for the next values; noted with them: protein: commercial; no parallel G4 by CD.
Regarding GGAUUAGUGUGAGGAGGA (ssRNA) [VEGFA 5' UTR G4 mutant], the binding result was “no binding”.
UUUUUCAGGGCGCAGGAGGGAGAUUUUU (ssRNA) [VEGFA intronic G4_2 mutant]: the binding result is “no binding”.

The target in another data set is alpha-Thrombin (human, UniProt P00734;P00734 328-363;364-622). Kind of data set: SPR; SPR: PBS (137 mM NaCl, 2.7 mM KCl, 8 mM Na2HPO4, 2 mM KH2PO4) pH 7.4, 25 °C, protein on CM5; EMSA: 50 mM Tris-HCl, 100 mM KCl, pH 7.5, room temperature, 1 uM RN.
Settings: not given
On to GGGGGCAGGGCGCAGGAGGGAGAGGGGG (structured_RNA) [VEGFA intronic G4_2], for which the binding result is reported as “no binding”.
Consider GGGGGCGGGAGCCAGAGACCAGUGGGCAGGG (structured_RNA) [VEGFA intronic G4_1], for which the binding result was “no binding”.
In the case of GGAGGAGGGGGAGGAGGA (structured_RNA) [VEGFA 5' UTR G4], the binding result is “no binding”.

Source of the values: PMC6332122, “Identification of RNA Oligonucleotides Binding to Several Proteins from Potential G-Quadruplex Forming Regions in Transcribed Pre-mRNA”.
